In patent US20240309093A1 (MINGHUI PHARMACEUTICAL HANGZHOU, published 2024):
Numbering of substitutions follows the chain as printed.

B1: MHPD1-A-7 H Fc (Fc fusion)
chain: QVQLVESGGGLVQPGGSLRLSCATSGSRRSIYAMGWFRQAPGKGLEFVAGIGWAYATTYYADSVKGRFTISRDNTKNTLYLQMNSLRAEDTAVYYCAADLDHSGFDYWGQGTLVTVSS
notes: parent of the second round; also called parent MHPD1-A-7 H Fc; not shown: Fc
B2: MHPD1-A (VHH)
VHH: QVQLVESGGGSVQVGGSLTLSCAASGSDPSIYAMGWFRQAPGKEHEFVAGIGWSAATTYYADSVKGRFGISRDNTKNTVALLMNSLKPEDTAIYYCAADLDHSGFDYWGQGTQVTVSS
notes: tag not described; also called VHH; single-domain antibody MHPD1-A
B3: MHPD1-A-H19 Fc (Fc fusion, not shown: a dimerising Fc or GST; small tags and cut ends)
VHH: B1 chain with T24A, R28D, R29P, A54S, Y55A
notes: Second round of humanization; also called humanized nanobody-Fc fusion protein; parent MHPD1-A-H19 Fc
B4: MHPD1-A-3 H Fc (Fc fusion, not shown: a dimerising Fc or GST; small tags and cut ends)
VHH: B1 chain with T24A, R28G, A54S
B5: MHPD1-A-4 H Fc (Fc fusion, not shown: a dimerising Fc or GST)
chain: B1 chain with T24A, R28V, R29G, Y55F
B6: MHPD1-A-H8 Fc (Fc fusion, not shown: a dimerising Fc or GST; small tags and cut ends)
VHH: B2 VHH with E44G, H45L
notes: First round of humanization of MHPD1-A; also called humanized nanobody-Fc fusion protein
B7: MHPD1-A-H2 Fc (Fc fusion, not shown: a dimerising Fc or GST; small tags and cut ends)
VHH: B2 VHH with T19R, K87R, P88A
notes: as for B6
B8: MHPD1-A-H6 Fc (Fc fusion, not shown: a dimerising Fc or GST; small tags and cut ends)
VHH: B2 VHH with G35M
notes: as for B6
B9: MHPD1-A-H7 Fc (Fc fusion, not shown: a dimerising Fc or GST; small tags and cut ends)
VHH: B2 VHH with G35M, T75S
notes: as for B6
B10: MHPD1-A-H9 Fc (Fc fusion, not shown: a dimerising Fc or GST; small tags and cut ends)
VHH: B2 VHH with V14P, T19R, K87R, P88A, Q113L
notes: also called humanized nanobody-Fc fusion protein
B11: MHPD1-A-H5 Fc (Fc fusion, not shown: a dimerising Fc or GST; small tags and cut ends)
VHH: B2 VHH with A80Y, L82Q
notes: as for B6
B12: MHPD1-A-H3 Fc (Fc fusion, not shown: a dimerising Fc or GST; small tags and cut ends)
VHH: B2 VHH with V79L
notes: as for B6
B13: MHPD1-A-H10 Fc (Fc fusion, not shown: a dimerising Fc or GST; small tags and cut ends)
VHH: B2 VHH with V14P, T19R, G69T, V79L, Q113L
notes: as for B6
B14: Pembrolizumab (antibody, human IgG4 S228P, kappa, V domains shown)
VH: QVQLVQSGVEVKKPGASVKVSCKASGYTFTNYYMYWVRQAPGQGLEWMGGINPSNGGTNFNEKFKNRVTLTTDSSTTTAYMELKSLQFDDTAVYYCARRDYRFDMGFDYWGQGTTVTVSS
VL: EIVLTQSPATLSLSPGERATLSCRASKGVSTSGYSYLHWYQQKPGQAPRLLIYLASYLESGVPARFSGSGSGTDFTLTISSLEPEDFAVYYCQHSRDLPLTFGGGTKVEIKR
B15: MHPD1-A-H18 Fc (Fc fusion, not shown: a dimerising Fc or GST; small tags and cut ends)
VHH: B1 chain with T24A, R28D, R29P, A54S, Y55A, V93I
notes: Second round of humanization of MHPD1-A; also called humanized nanobody-Fc fusion protein
B16: MHPD1-A-H17 Fc (Fc fusion, not shown: a dimerising Fc or GST; small tags and cut ends)
VHH: B1 chain with L11S, T24A, R28D, R29P, A54S, Y55A, V93I
notes: as for B15
B17: MHPD1-A-H15 Fc (Fc fusion, not shown: a dimerising Fc or GST; small tags and cut ends)
VHH: B1 chain with L11S, T24A, R28D, R29P, G44E, L45H, A54S, Y55A, V93I
notes: as for B15
B18: MHPD1-A-H12 Fc (Fc fusion, not shown: a dimerising Fc or GST; small tags and cut ends)
VHH: B2 VHH with V14P, T19R, G69T, V79L, K87R, P88A, Q113L
notes: as for B15
B19: MHPD1-A-H16 Fc (Fc fusion, not shown: a dimerising Fc or GST; small tags and cut ends)
VHH: B2 VHH with S11L, V14P, T19R, K87R, P88A, I93V, Q113L
notes: as for B15
B20: MHPD1-A-H14 Fc (Fc fusion, not shown: a dimerising Fc or GST; small tags and cut ends)
VHH: B2 VHH with V14P, T19R, A80Y, L82Q, K87R, P88A, Q113L
notes: as for B15

Target: T1, recombinant human PD-1-Fc-Biotin (human, UniProt Q15116 25-167, biotin (site not stated))
T1 construct: also called antigen protein human PD-1; not shown: Fc
T1 sequence (Q15116 25-167 limits assumed): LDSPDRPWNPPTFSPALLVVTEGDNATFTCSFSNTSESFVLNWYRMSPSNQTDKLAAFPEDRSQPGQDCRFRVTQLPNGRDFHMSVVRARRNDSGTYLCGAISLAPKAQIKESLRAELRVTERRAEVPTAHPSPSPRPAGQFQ
Assay: competitive ELISA; PD-L1-mFc coated, 0.5 µg/mL PD-1-Fc-Biotin, streptavidin-HRP
Protocol: The plates were washed three times with PBST. 5% PBS-Milk was added and incubated at room temperature for 1 hr. All the nanobody-Fc fusion proteins were subject to 3-fold gradient dilutions with an initial concentration of 10 μg/mL, added into each well at 30 μL/well, and incubated at room temperature for 1 hr. […] The plates were washed with PBST between incubations.

IC50 | Binder
778 pM | B1

Target: T2, recombinant human PD-1 protein (human, UniProt Q15116 25-167, limits assumed)
T2 construct: also called recombinant human PD-1 antigen; human recombinant PD-1
T2 sequence (Q15116 25-167 limits assumed): as above
Assay: competitive ELISA; PD-1 coated 2 µg/mL, 4 µg/mL PD-L1-Fc as competitor, anti-human IgG-HRP
Protocol: Ninety-six-well plates were coated with recombinant human PD-1 antigen (2 μg/mL) at 4° C. overnight. The plates were blocked with 1% casein. […] The plates were washed with PBST between incubations.

EC50 | Binder
1.71 µg/mL | B2

Target: T1, recombinant human PD-1-Fc-Biotin
Assay: competitive ELISA; PD-L1-mFc coated, 0.5 µg/mL PD-1-Fc-Biotin, streptavidin-HRP
Remark: another data set of the same source
Protocol: The plates were washed three times with PBST. 5% PBS-Milk was added and incubated at room temperature for 1 hr. All the nanobody-Fc fusion proteins were subject to 3-fold gradient dilutions with an initial concentration of 10 μg/mL, added into each well at 30 μL/well, and incubated at room temperature for 1 hr. […] The well plates were washed with PBST between incubations.

IC50 | Binder
316 pM | B1
1310 pM | B3
275 pM | B4
281 pM | B5

Target: T3, recombinant human PD-1-his protein (human, UniProt Q15116 25-167)
T3 construct: also called hPD-1-his; not shown: his tag
T3 sequence (Q15116 25-167 limits assumed): as above
Assay: ELISA (first round of humanization); PD-1-his coated 2 µg/mL, anti-human IgG Fc-HRP
Protocol: (§1) 96-well ELISA plates were coated with 2 μg/mL of recombinant human PD-1-his antigen protein at 30 μL/well at 4° C. overnight. The plates were washed three times with PBST. 5% PBS-Milk was added and incubated at room temperature for 2 h. The plates were washed three times with PBST. All the nanobody-Fc fusion proteins were subject to 3-fold gradient dilutions with an initial concentration of 10 μg/mL, added into each well at 30 μL/well, and incubated at room temperature for 1 hr. The plates were washed three times with PBST. The secondary antibody Goat-Anti-Human-IgG-Fc-HRP (purchased from Sigma) was diluted at 1:8000, added into each well at 30 μL/well, and incubated at room temperature for 50 min. The plates were washed three times with PBST. TMB (purchased from SurModics) was added into each well at 30 μL/well and developed at room temperature in dark for 1 min to 5 min. 2 M hydrochloric acid was added at 30 μL/well to stop the reaction. The OD450 absorbance value was read by a microplate reader.

EC50 | Binder
0.2 µg/mL | B6
0.22 µg/mL | B7
2.91 µg/mL | B8
2.54 µg/mL | B9
0.15 µg/mL | B10
0.35 µg/mL | B11
0.16 µg/mL | B12
0.32 µg/mL | B13

Target: PD1 on Jurkat-NFAT-PD1 transgene cells
Assay: cell-based or functional assay

luciferase reporter gene fluorescence signal, Jurkat-NFAT-PD1 effector cells with Hep3B-OS8-PDL1 target cells (EC50) | Binder
91 pM | B14
70 pM | B1
78 pM | B4
90 pM | B5

Target: T3, recombinant human PD-1-his protein
Assay: ELISA; PD-1-his coated 2 µg/mL, anti-human IgG Fc-HRP
Protocol: (§2) The plates were washed three times with PBST. 5% PBS-Milk was added and incubated at room temperature for 2 h. The plates were washed three times with PBST. All the nanobody-Fc fusion proteins were subject to 3-fold gradient dilutions with an initial concentration of 10 μg/mL, added into each well at 30 μL/well, and incubated at room temperature for 1 hr. The plates were washed three times with PBST. The secondary antibody Goat-Anti-Human-IgG-Fc-HRP was diluted at 1:8000, added into each well at 30 μL/well, and incubated at room temperature for 50 min. The plates were washed nine times with PBST. TMB was added into each well at 30 μL/well and developed at room temperature in dark for 1 min to 5 min. 2 M hydrochloric acid was added at 30 μL/well to stop the reaction. The OD450 absorbance value was read by a microplate reader. Graphpad Prism software was used to fit the curve and calculate the EC₅₀ value (see Table 7).

EC50 | Binder
135 pM | B1
369 pM | B3
251 pM | B4
169 pM | B5

Target: T3, recombinant human PD-1-his protein
Assay: as above
Remark: another data set of the same source
Protocol: as §2, with “PBS-Milk” for “PBS-Milk was added”, “3-folded” for “3-fold”, “dilution” for “dilutions”, “calculate” for “calculate the”, “values.” for “value (see Table 7).”

EC50 | Binder
149 pM | B1

Target: T3, recombinant human PD-1-his protein
Assay: ELISA (second round of humanization); PD-1-his coated 2 µg/mL, anti-human IgG Fc-HRP
Protocol: as §1

EC50 | Binder
550 pM | B3
1290 pM | B15
640 pM | B16
2150 pM | B17
4320 pM | B18
2290 pM | B19
1880 pM | B20
